Laboratory results: patent US20200055958A1

Biological target: VEGF-A (human) (UniProt P15692)
Assay: cell-based or functional assay

VEGF-A (human), sequence (P15692 other isoform, or with tags, fused parts or gaps limits assumed): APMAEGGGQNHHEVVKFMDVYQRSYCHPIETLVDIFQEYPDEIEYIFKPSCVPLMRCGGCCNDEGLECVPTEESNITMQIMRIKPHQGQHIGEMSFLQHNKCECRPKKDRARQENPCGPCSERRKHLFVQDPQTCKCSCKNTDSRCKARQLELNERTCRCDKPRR

Substance: positive control, VEGFR1 ECD D2 and VEGFR2 ECD D3 fused C-terminally with IgG1 Fc fragment (Fc fusion)
- IC50, VEGF-dependent HUVEC cell growth assay (MTS): 0.19 nM
